The assay addresses T1, recombinant mature human OSCP (human, UniProt P48047 24-213).
T1 construct: human F-ATP synthase subunit OSCP, mature protein
T1 sequence (looked up): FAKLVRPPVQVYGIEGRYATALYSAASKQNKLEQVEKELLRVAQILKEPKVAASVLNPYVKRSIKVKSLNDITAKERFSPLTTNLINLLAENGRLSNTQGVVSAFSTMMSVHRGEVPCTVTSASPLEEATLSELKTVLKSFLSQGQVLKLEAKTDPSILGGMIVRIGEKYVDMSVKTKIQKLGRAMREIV
Briefly: SPR; Biacore T100, CM5 chip, CyPD immobilized by amine coupling (800-1200 RU); OSCP injected at increasing concentrations; Langmuir interaction model. Conditions: both partners purified. In general terms: In SPR one partner is held on a chip, and binding of the other changes the refractive index at the surface.

B1: purified recombinant human cyclophilin D (enzyme)
chain: not shown
notes: human cyclophilin D, cDNA from a human placenta library; called 'recombinant mature human' for the SPR; also called CyPD; CypD; source: E. coli BL21(DE3)pLysS (plasmid pSUMO-Cyclophilin D), purified
Turning to B1, the binding result was “binds”.

(Values after PMC9751095, “The mitochondrial chaperone TRAP1 regulates F-ATP synthase channel formation” (Cell Death and Differentiation, 2022).)
